Assay results as given in paper PMC12288907 (JCI Insight, 2025).

How the values were obtained:
[1] = target: recombinant soluble trimeric H3 HA of A/Hong Kong/1/1968 H3N2 (HK68 H3) (Influenza A virus A/Hong Kong/1/1968 …, UniProt Q91MA7); experiment: ELISA; conditions: both partners purified
[2] = target: recombinant soluble trimeric H3 HA of A/Hong Kong/1/1968 H3N2 (Influenza A virus A/Hong Kong/1/1968 …, UniProt Q91MA7); experiment: ELISA; conditions: both partners purified
Sequence of recombinant soluble trimeric H3 HA of A/Hong Kong/1/1968 H3N2 (Q91MA7 17-530): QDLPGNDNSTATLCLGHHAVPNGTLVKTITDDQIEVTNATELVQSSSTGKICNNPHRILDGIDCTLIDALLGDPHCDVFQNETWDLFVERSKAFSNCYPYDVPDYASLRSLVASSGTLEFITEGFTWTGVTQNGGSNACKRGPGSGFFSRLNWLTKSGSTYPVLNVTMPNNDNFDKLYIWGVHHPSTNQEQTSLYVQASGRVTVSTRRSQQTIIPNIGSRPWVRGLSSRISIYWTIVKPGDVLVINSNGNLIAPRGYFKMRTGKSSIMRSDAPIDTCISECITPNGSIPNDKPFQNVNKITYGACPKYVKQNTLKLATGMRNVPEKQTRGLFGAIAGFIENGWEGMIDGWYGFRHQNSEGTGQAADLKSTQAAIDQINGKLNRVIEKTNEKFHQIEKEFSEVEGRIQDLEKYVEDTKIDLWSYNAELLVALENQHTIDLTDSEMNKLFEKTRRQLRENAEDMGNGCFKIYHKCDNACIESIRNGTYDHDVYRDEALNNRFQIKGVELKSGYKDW

Sequence of recombinant soluble trimeric H3 HA of A/Hong Kong/1/1968 H3N2 (HK68 H3) (Q91MA7 17-530): as above

Binder	binding result [1]	binding result [2]
recombinant H7-235 IgG1 (rH7-235 IgG1) (antibody, V domains shown, IgG1; also called rH7-235 mAb; mAb H7-235; copies: 2 + 2) VH: QVQLVESGGGVVQPGESLRLSCAASGFAFRTYGMHWVRQAPGKGLEWVGVIWYDGSNKYYGDSVKGRFTISRDNSQNTLYLQMNSLRAEDTAVYYCARNGERWRVEDYYYGMDVWGQGTLVTVSS VL: EIVMTQSPLSLPVTPGEPASISCRSSQSLLHSNAHNYLDWYLQKPGQSPQLLIYLGSNRASGVPDRFSGSGSGTDFTLKISRVEAEDVGIYYCMQALQTPITFGQGTRLEIK	no binding	
rH7-235 IgG1 (recombinant human monoclonal antibody H7-235) (antibody, V domains shown, also called mAb H7-235; source: Expi293F, transient transfection, purified (MabSelect Sure)) VH: QVQLVESGGGVVQPGESLRLSCAASGFAFRTYGMHWVRQAPGKGLEWVGVIWYDGSNKYYGDSVKGRFTISRDNSQNTLYLQMNSLRAEDTAVYYCARNGERWRVEDYYYGMDVWGQGTLVTVSS VL: EIVMTQSPLSLPVTPGEPASISCRSSQSLLHSNAHNYLDWYLQKPGQSPQLLIYLGSNRASGVPDRFSGSGSGTDFTLKISRVEAEDVGIYYCMQALQTPITFGQGTRLEIK		no binding (tested: >10,000 ng/mL)
rH7-235rev IgG1 (germline revertant form of rH7-235 IgG) (antibody, V domains shown) VH: QVQLVESGGGVVQPGRSLRLSCAASGFTFSSYGMHWVRQAPGKGLEWVAVIWYDGSNKYYADSVKGRFTISRDNSKNTLYLQMNSLRAEDTAVYYCARNGERWRVEDYYYGMDVWGQGTLVTVSS VL: not shown		no binding (tested: >10,000 ng/mL)
